{"source": "paper PMC8861645", "molecular_target": "PggH (phosphoguanylyl guanylate hydrolase), VCA0593 of Vibrio cholerae (Vibrio cholerae El Tor N16961)", "assay": "SEC", "data": [{"substance": "PggH (phosphoguanylyl guanylate hydrolase), VCA0593 of Vibrio cholerae (enzyme)", "values": [{"measurement": "stoichiometry N", "value": 2}]}]}
